This passage reports binding result and Kd results from PMC2745220 (Cell, 2008).

Series [1] deals with the molecule itself. As to the kind of experiment: native gel or EMSA.
Series [2] concerns the target T1, ParB, purified (C. crescentus, UniProt P0CAV8 1-304).
T1 sequence (looked up): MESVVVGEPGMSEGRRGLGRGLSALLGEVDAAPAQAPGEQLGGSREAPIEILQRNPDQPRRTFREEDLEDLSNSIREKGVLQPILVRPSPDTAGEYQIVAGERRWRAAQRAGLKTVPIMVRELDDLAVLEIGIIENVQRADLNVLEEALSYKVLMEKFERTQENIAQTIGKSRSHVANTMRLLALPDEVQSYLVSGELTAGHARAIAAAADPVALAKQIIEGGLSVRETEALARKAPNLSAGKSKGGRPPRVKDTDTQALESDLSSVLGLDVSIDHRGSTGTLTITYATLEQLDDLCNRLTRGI
Nature of the series: SPR. For orientation: In SPR one partner is held on a chip, and binding of the other changes the refractive index at the surface.

Series [3] concerns the molecule itself. As to the kind of experiment: SEC. In general terms: Size exclusion chromatography separates by hydrodynamic size, large species first.

B1: PopZ (Polar Organizing Protein Z), purified, 6-His tag cleaved (natural protein, C. crescentus, UniProt Q9A8N4 1-177, looked up)
chain: MSDQSQEPTMEEILASIRRIISEDDAPAEPAAEAAPPPPPEPEPEPVSFDDEVLELTDPIAPEPELPPLETVGDIDVYSPPEPESEPAYTPPPAAPVFDRDEVAEQLVGVSAASAAASAFGSLSSALLMPKDGRTLEDVVRELLRPLLKEWLDQNLPRIVETKVEEEVQRISRGRGA
Broadly, the Kd is the equilibrium constant for the complex coming apart. A higher Kd goes with weaker binding. On to B1, for which, in series [1], the binding result is on record as “binds”. In addition, in series [2], the dissociation constant Kd came out at 20 nM.

B2: 6His-PopZ (His-tagged PopZ) (natural protein, C. crescentus, UniProt Q9A8N4 1-177, looked up)
chain: MSDQSQEPTMEEILASIRRIISEDDAPAEPAAEAAPPPPPEPEPEPVSFDDEVLELTDPIAPEPELPPLETVGDIDVYSPPEPESEPAYTPPPAAPVFDRDEVAEQLVGVSAASAAASAFGSLSSALLMPKDGRTLEDVVRELLRPLLKEWLDQNLPRIVETKVEEEVQRISRGRGA
On to B2, for which, in series [3], the binding result is on record as “binds”.
